Residue numbers refer to the chain shown, from its start. In names and notes the source's numbering stands.
B1: negative control mAb 13R4 (recognizing E. coli beta-galactosidase) (antibody, V domains shown)
VH: EVQLVESGGSLVKPGGSLRLSCAASGFTFSNYSMNWVRQAPGKGLEWISSISGSSRYIYYADFVKGRFTISRDNATNSLYLQMNSLRAEDTAVYYCVRSSITIFGGGMDVWGRGTLVTVSS
VL: QSVLTQPASVSGSPGQSITISCAGTSSDVGGYNYVSWYQQHPGKAPKLMIYEDSKRPSGVSNRFSGSKSGNTASLTISGLQAEDEADYYCSSYTTRSTRVFGGGTKLAVLG
B2: S8-ATX2A3 (antibody, V domains shown)
VH: QVQLQESGPGLVKPSETLSLTCTVSGASISGYYWNWIRQPPGKGLEWIGYIHYSGTTNYNPSLKSRITISLDTSENQFSLRLSSVTAADTAVYYCARDWYTGYDWEGFDYWGQGTLVTVSS
VL: QSVLTQPPSVSGAPGQRVSFSCTGTSSNIGTGFDVHWYRQLPGTAPKVLIYNNNNRPSGVPDRFSASKSGTSASLAITGLQAEDEADYYCQSYDSSLSGSVFGGGTRLTVL
notes: Only variable domains are tied to the name in the text; IgG1 format in ADCC and eosinophil assays; also called Sig8-2A3
B3: S8-ATX1B6 (antibody, V domains shown)
VH: QVQLVESGGGVVLPGRSLRLSCAASGFTFNIYGMHWVRQAPGKGLEWVAVISYDGNNKEYADSVKGRFTISRDSSRNTLYLQMNSLRAEDTAVYYCAKRGYGSSSLEFWGQGTLVTVSS
VL: DIQMTQSPSSLSASVGDRVTITCRSSQDIRNDLGWYQQKPGKAPKRLIYASSNLQSGVPSRFSGSGSGTEFTLTISSLQPDDFATYYCLQHNTYPYTFGQGTKLEIK
notes: Only variable domains are tied to the name in the text; also made as IgG4 (S228P); also called Sig8-1B6; 11B6
B4: S8-ATX1B4 (antibody, V domains shown)
VH: B3 VH with L13Q, N30S, E59D, A61T, S74N, R76K, R87T
VL: B3 VL with S25A, S51T, N53S, G66R, T69A, I75V, D81E
notes: Only variable domains are tied to the name in the text; Produced as recombinant fully human IgG1 and IgG4 (S228P) with a kappa light chain; also called Sig8-1B4; 11B4
B5: S8-ATX1H4 (antibody, V domains shown)
VH: QVQLVQSGTEVKYPGASVKVSCKASGYTFIDYGISWVRQAPGQGLEWMGWISAYNGNTDYAQKLQGRVTMTTDTSTSTAYMDLRSLRSDDTAVYYCAREGEGYCTYGVCPSFDYWGQGTLVTVSS
VL: EIVLTQSPGTLSLSPGERATLSCRASQSVSSSYLAWYQQKPGQAPRLLIYGASTRGTGIPDRFSGSGSGTDFTLTISRLEPEDFALYYCQQYGSSPYTFGQGTKLEIK
notes: Only variable domains are tied to the name in the text; Produced as recombinant human IgG1 and IgG4 (S228P), kappa light chain; also called Sig8-1H4
B6: S8-ATX1E4 (antibody, V domains shown)
VH: QVQLVQSGSELKKPGASVKVSCKTSGYTFTSYAMNWVRQAPGQGLEWMGWINTNTGNPTYAQGFRGRFVFSLDTSVSTAYLQISSLKAEDTAVYYCARDKYSSSWYWFDSWGQGTLVTVSS
VL: DIQMTQSPSSLSASVGDRVTITCRPSQNISSYLNWYQQKPGKAPKLLIYAASSLRSGVPSRFSGSGSGTDFTLTVSSLQPEDFANYYCQQSYSTPYTFGRGTKLEIK
notes: Only variable domains are tied to the name in the text; Produced as recombinant human IgG1 and IgG4 (S228P), kappa light chain; also called Sig8-1E4
B7: S8-ATX1E1 (antibody, V domains shown)
VH: EVQLVESGGGLVQPGRSLRLSCAASGFMFDDYVMHWVRQAPGKGLEWVSGINWNSDNIGYADSVKGRFTISRDNAKNSLFLQMNSLRVEDTALYYCAKDIDAAAFDYWGQGTLVTVSS
VL: DIVMTQSPLSLPVTPGEPASISCRSSQSLLHSNGYSYLAWYLQKPGQSPQLLIYLVSNRASGVPDRFTGSGSGTDFTLKISRVEAEDVGVYYCMQALQTPWTFGQGTKVEIK
notes: Only variable domains are tied to the name in the text; Produced as recombinant human IgG1 and IgG4 (S228P), kappa light chain; also called Sig8-1E1
B8: S8-ATX2F10 (antibody, V domains shown)
VH: EVQLVESGGDLVKSGGSLRLSCAASGFTFSDAWMSWVRQAPGKGLEWVGRIQSKTDGGTTDYVAPVKGRFTISRDDSKDTLYLHMNSLTTEDTAVYYCTTDLYYYGSGSYFLGQGTLVTVSS
VL: DIQMTQSPSSLSASVGDRVTITCRASQNIITYLNWYQQKPGKAPKLLIYAASSLQSGVPSRFSGSGSGTDFTLTISSLQPEDFAIYHCQQSYNVPTTFGQGTKLEIK
notes: Only variable domains are tied to the name in the text; also IgG4 (S228P); also called Sig8-2F10; S8-2F10

What follows are binders tested against T1, full-length human Siglec-8 (Siglec-8^FL) (human, UniProt Q9NYZ4 17-499) (assay: flow cytometry on Siglec-8-expressing cells, in some experiments of FIGS. 9A-9D).
T1 construct: whole, on cells; Expressed by lentiviral transduction on K562, RS4;11, TF-1, EOL-1 and other cells; the same id is used for Siglec-8 endogenously expressed on LUVA cells, HMC1.2 cells and primary human eosinophils; also called Siglec-8^Hu; SAF2
Procedure: (§1) FIGS. 9A-9D. Human Siglec-8 mAbs were tested flow cytometrically against (FIG. 9A) parental human lymphoid RS4; 11 cells (endogenously lacking Siglec-8 expression) and a subline engineered to express Siglec-8^FL, (FIG. 9B) parental human mast cell line, HMC1.2, enriched for expression of endogenous Siglec-8; and (FIG. 9C) parental human myeloid K562 (endogenously lacking Siglec-8 expression) and sublines of K562 cells engineered to express either Siglec-8^FL, Siglec-8^ΔE2, or Siglec-8^V-set; and (FIG. 9D) primary human eosinophils, as indicated. A negative control without primary mAbs was included, as was, in some experiments, a negative control with a non-binding primary mAb (13R4).

T1 sequence (Q9NYZ4 17-499): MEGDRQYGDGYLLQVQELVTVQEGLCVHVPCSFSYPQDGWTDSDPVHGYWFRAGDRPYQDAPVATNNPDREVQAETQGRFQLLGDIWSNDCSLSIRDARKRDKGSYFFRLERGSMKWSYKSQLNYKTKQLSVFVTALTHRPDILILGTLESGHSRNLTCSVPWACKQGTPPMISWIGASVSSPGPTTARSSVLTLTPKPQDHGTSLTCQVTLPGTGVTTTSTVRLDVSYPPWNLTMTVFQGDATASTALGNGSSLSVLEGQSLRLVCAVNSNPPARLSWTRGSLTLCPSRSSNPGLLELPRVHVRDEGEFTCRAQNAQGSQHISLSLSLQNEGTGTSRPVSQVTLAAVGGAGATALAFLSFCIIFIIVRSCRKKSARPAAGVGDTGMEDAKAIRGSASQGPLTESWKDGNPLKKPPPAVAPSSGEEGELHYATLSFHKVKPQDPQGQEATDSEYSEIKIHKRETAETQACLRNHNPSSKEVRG

Binder | binding result
B1 | no binding

The binders below were run against T1, full-length human Siglec-8 (Siglec-8^FL) (assay: flow cytometry on K562 cells expressing Siglec-8 FL (FIG. 9C)).
Procedure: as §1

Binder | binding result
B2 | binds
B3 | binds
B4 | binds
B5 | binds
B6 | binds
B7 | binds
B8 | binds

— patent publication US20250034245A1 (FRED HUTCHINSON CANCER CENTER, published 2025)
